Assay results: patent publication US20100068218A1

What follows are binders tested against HLA-A*0101 (human) (assay: peptide-HLA binding inhibition assay).

Binder	IC50 [nM]
YSLNFMGY (modifications not checked) [HBV pol 580 epitope YSLNFMGY]	382
LTFGRETVLEY (modifications not checked) [HBV core 137 epitope …]	80

What follows are binders tested against HLA-A*2402 (human) (assay: peptide-HLA binding inhibition assay).

Binder	IC50 [nM]
LWFHISCLTF (modifications not checked) [HBV core 101 epitope …]	6.7
SFCGSPYSW (modifications not checked) [HBV pol 167 epitope …]	146
GYPALMPLY (modifications not checked) [HBV pol 639 epitope …]	280
RFSWLSLLVPF (modifications not checked) [HBV env 332 epitope …]	12
